# According to IntAct's records for PubMed 22807449:
# B1: Natural cytotoxicity triggering receptor 3 (Homo sapiens), O14931 (parent)
# chain: MAWMLLLILIMVHPGSCALWVSQPPEIRTLEGSSAFLPCSFNASQGRLAIGSVTWFRDEVVPGKEVRNGTPEFRGRLAPLASSRFLHDHQAELHIRDVRGHDASIYVCRVEVLGLGVGTGNGTRLVVEKEHPQLGAGTVLLLRAGFYAVSFLSVAVGSTVYYQGKCLTWKGPRRQLPAVVPAPLPPPCGSSAHLLPPVPGG
# partner: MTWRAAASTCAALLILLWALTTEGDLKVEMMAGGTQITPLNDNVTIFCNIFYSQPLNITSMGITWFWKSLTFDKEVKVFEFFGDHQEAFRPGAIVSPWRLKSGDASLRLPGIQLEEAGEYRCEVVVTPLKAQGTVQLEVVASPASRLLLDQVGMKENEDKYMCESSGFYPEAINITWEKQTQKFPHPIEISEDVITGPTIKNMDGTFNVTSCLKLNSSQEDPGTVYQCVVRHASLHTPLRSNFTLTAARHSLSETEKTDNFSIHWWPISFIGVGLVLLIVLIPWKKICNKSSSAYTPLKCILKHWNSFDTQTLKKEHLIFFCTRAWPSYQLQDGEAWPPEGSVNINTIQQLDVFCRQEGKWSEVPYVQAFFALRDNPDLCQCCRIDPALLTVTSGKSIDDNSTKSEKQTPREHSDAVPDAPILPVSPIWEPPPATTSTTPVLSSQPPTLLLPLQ
# B2: Natural cytotoxicity triggering receptor 3 (Homo sapiens), O14931 (parent)
# chain: B1 chain
# Variants of: B1
# Conditions: with nr3l1_human NCR3LG1, Q68D85
row,Variant,effect of a mutation on the interaction
1,N42Q;N121Q,disrupting interaction strength
2,N121Q,with no effect
3,N42Q,disrupting interaction strength
4,N68Q;N121Q,decreasing interaction strength
5,N68Q,decreasing interaction strength
6,N42Q;N68Q,disrupting interaction strength
7,N42Q;N68Q;N121Q,disrupting interaction strength

# Variants of: B2
# Conditions: with bag6_human BAG6, P46379
# bag6_human BAG6, P46379, sequence (P46379 whole entry): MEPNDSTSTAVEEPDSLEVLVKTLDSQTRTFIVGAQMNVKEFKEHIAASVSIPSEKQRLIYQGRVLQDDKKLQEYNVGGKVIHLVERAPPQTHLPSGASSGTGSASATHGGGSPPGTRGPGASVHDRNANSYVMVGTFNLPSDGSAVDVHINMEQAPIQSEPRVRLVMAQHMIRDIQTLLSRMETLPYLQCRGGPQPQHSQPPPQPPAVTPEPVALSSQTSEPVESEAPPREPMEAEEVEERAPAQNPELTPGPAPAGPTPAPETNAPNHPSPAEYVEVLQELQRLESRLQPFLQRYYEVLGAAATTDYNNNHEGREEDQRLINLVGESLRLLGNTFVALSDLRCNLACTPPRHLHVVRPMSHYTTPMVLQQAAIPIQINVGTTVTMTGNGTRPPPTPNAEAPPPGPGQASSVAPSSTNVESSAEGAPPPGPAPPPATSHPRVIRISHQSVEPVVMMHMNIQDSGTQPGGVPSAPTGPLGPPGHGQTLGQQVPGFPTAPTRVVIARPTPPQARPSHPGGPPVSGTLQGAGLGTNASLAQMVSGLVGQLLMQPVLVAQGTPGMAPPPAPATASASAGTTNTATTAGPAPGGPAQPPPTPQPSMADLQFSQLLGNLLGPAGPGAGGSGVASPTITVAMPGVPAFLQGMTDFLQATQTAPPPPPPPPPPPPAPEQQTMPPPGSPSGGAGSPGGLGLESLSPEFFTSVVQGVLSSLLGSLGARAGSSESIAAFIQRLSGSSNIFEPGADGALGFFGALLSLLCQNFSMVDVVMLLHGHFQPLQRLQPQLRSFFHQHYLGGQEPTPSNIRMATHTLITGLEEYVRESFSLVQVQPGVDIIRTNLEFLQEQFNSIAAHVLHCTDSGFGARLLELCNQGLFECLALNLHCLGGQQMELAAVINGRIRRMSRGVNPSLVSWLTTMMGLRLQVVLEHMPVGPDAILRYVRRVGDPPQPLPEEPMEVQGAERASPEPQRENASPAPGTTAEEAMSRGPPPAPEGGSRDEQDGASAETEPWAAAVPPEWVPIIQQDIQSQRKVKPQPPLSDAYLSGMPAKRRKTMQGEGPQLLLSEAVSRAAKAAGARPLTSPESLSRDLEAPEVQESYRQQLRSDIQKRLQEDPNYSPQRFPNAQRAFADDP
row,Variant,effect of a mutation on the interaction
1,N42Q;N121Q,with no effect
2,N68Q;N121Q,with no effect
3,N42Q;N68Q;N121Q,with no effect
4,N68Q,with no effect
5,N42Q,with no effect
6,N121Q,with no effect
7,N42Q;N68Q,with no effect
